# B1: pCDL-HERV WΔ120 aa: N-terminal 120 amino acid fragment of HERV-W ENV (amino acids 1 to 120, including signal peptide), expressed from a bicistronic cassette (protein)
# chain: APPPCRCMTSSSPYQEFLWRMQRPGNIDAPSYRSLSKGTPTFTAHTHMPRNCYHSATLCMHANTHYWTGKMINPSCPGGLGVTVCWTYFTQTGMSDGGGV
# Test system: CD3+ Vβ+ T cells of peripheral blood lymphocytes (PBL)
# Assay: T-cell enrichment assay with HtTA 4 cells transfected with bicistronic constructs
# Type: cell-based, human
# Conditions: PBL from a healthy donor; 9 days of specific stimulation; FIG. 18
molecule,measurement,value
B1,expansion of Vβ17+ T-cells,no expansion

# — patent publication US20070249808A1 (priority 2000, published 2007)
